The values below come from article PMC6921269.

For data set [1], the system named is CCCCCCCCCCCCCCCCCC(=O)CC(=O)SCCNC(C)=O. Nature of the data set: purified protein. The note with it: co-substrate C5 diketide-NAC, 37 °C, 20 min.
Data set [2] relates to CCCCCCCCCCCCCCCC(=O)CC(=O)SCCNC(C)=O. Kind of data set: purified protein. Conditions: co-substrate C5 diketide-NAC, 37 °C, 20 min.

A word on the Km: it is the concentration of substrate that gives half-maximal velocity. The kcat is the maximal rate divided by the concentration of active sites. The term kcat/Km denotes the turnover number divided by the Michaelis constant. In the case of CsyB (Aspergillus oryzae RIB40; I375F), in data set [1], the Km is listed as 6.5 ± 2.1 mM, the catalytic constant (kcat) was 0.882 ± 0.14 s⁻¹ and the kcat/Km was determined as 136 M⁻¹ s⁻¹. For the same substance, in data set [2], the Km is 5.4 ± 1.8 mM, the kcat was found to be 0.713 ± 0.075 s⁻¹ and the specificity constant (kcat/Km) is 132 M⁻¹ s⁻¹.
